Measured values as given in patent US20250074995A1 (I MAB BIOPHARMA, published 2025).

Target: T1, monomeric human 4-1BB (human, UniProt Q07011 24-186)
T1 construct: SPR analyte or ligand
Experiment: SPR with monomeric human 4-1BB

B1: parental anti-4-1BB sdAb antibody conjugated with IgG1 Fc fragment (Fc fusion)
chain: QVQLQESGGGLVQPGGSLRLSCAASGYTYSSNCMGWFRQAPGKGLEGVAVICTGGGSPSYADSVKGRFTISRDNAKNTLYLQMNSLRAEDTAVYYCAADLLRAGTPLSSYEFNYWGQGTLVTVSS
notes: also called 4-1BB sdAb-Fc; not shown: IgG1 Fc fragment
koff: 0.000168 s⁻¹
